Assay results as given in the DeepSol protein solubility set.

Assay: soluble on expression in E. coli; label from the status in PepcDB or PDB records

Sequence	soluble on expression in E. coli
MKPKDFCTAENWAENLSALGYLAGWRFVRMLPLPIARRVFDLGADLASKSGKGMGQLRANLARVVGAENVTQALVKQATRSYARYWLEAFRLPAIARDPELLARLRKGTVGLDLLDESLAAGKGVVLTLPHSGNWDMAGAFLISHHGQFTTVAERVKPERLFEAFVEFRESLGFEVLPLTGGERPPFEKLKERLTSGGIVCLLGERDLRHSGVETTFFGEKTSMPAGPAQLAIETGAALHVVHPWFDDDGWGLSVSDAVTVDNLSDTVQRIAHLFMANITAHPADWHMLQPLWFGDLDPERLKRSREQTNVHKPVALQEDN	not soluble
MSLKLKEEERMTEMILEYKNQLCKQNKLIQEKKENVLKMIAEVKGKEQESEELTAKIQELKEEYARKRETISTANKANEERLKGLQKSADLYRDYLGLEIRKIHGNKLQFIFTSIDPKNPESPYMFSMSINEAKEYEVYDSSPHLECLAEFQEKVRKTNNFSAFLANIRKAFIAKVHN	not soluble
MEKQNLPVVVVGAGPVGLAAAAHLVERGIEPLVLEAGASAATAVRDWAHVRLFSPWAEVTDPAAEKLLAPTGWLRPDGATYPTGGDWAERYLQPLADVLGDQVRYGATVTGVARAGRDRIVDSGREEQPFTVHIETADGGEERIAARAVIDAGRRGVRHADRLEHHHHHH	soluble
GSPGILMASQGTKRSYEQMETGGERQNATEIRASVGRMVGGIGRFYIQMCTELKLSDQEGRLIQNSITIERMVLSAFDERRNRYLEEHPSAGKDPKKTGGPIYRRRDGKWVRELILYDKEEIRRIWRQANNGEDATAGLTHMMIWHSNLNDATYQRTRALVRTGMDPRMCSLMQGSTLPRRSGAAGAAIKGVGTMVMELIRMIKRGINDRNFWRGENGRRTRIAYERMCNILKGKFQTAAQKAMMDQVRESRNPGNAEIEDLIFLARSALILRGSIAHKSCLPACVYGLAVASGYDFEREGYSLVGIDPFRLLQNSQVFSLIRPNENPAHKSQLVWMACHSAAFEDLRVSSFIRGTRVIPRGQLSTRGVQIASNENVEAMDSSTLELRSRYWAIRTRSGGNTNQQRASAGQISVQPTFSVQRNLPFERATIMAAFKGNTEGRTSDMRTEIIRMMESARPEDVSFQGRGVFELSDEKATNPIVPSFDMSNEGSYFFGDNAEEYDN	soluble
AGLKLMGAPVKLTVSQGQPVKLNCSVEGMEEPDIQWVKDGAVVQNLDQLYIPVSEQHWIGFLSLKSVERSDAGRYWCQVEDGGETEISQPVWLTVEGVPFFTVEPKDLAVPPNAPFQLSCEAVGPPEPVTIVWWRGTTKIGGPAPSPSVLNVTGVTQSTMFSCEAHNLKGLASSRTATVHLQ	soluble
MHHHHHHSSGVDLGTENLYFQSMENRELTYITNSIAEAQRVMAAMLADERLLATVRKVADACIASIAQGGKVLLAGNGGSAADAQHIAGEFVSRFAFDRPGLPAVALTTDTSILTAIGNDYGYEKLFSRQVQALGNEGDVLIGYSTSGKSPNILAAFREAKAKGMTCVGFTGNRGGEMRELCDLLLEVPSADTPKIQEGHLVLGHIVCGLVEHSIFGKQ	soluble
MKPNPPINELVLLQAHQLAERIRLRQVSCREVMQAYLAHIERFNPRVNALVSLLPAERLLEEADARDGELARGEWRGWMHGLPHAIKDLSLTRGIRTTLGSPLYRDYIPERDGIMVERIRAAGAILIGKTNTPEFGLGSQTYNPLFGATACAYDERLSAGGSSGGAAAALALHLVPVADGSDMMGSLRNPAAFNNVIGFRPSQGRVPFDDSADLFFDQLGYEGPMGRSVRDTALLLSVQAGADRRAPLSIAEPGARFAAPLERDFEGTRLGWLGDLDGYLPMQDGILQMCQRALGDFRSLGCEIEEANLGFAPERLWECWRTLRHWLVAGSLGGVHADPAKRALLKPEALWEVENGLRLGADAVFRASVIRSDWYRAIGRLFERYDYLLLPSAQVFPFAKETPWPRSIEGVAMDTYHRWMEVVVPGSLSGCPVANVQAGFNAEGLPMGLQIIGPHQADFAVLQLAHAYERASRWFERQPSPLLAN	not soluble
MQCALYDAGRCRSCQWITQPIPEQLSAKTADLKNLLADFPVEEWCAPVSGPEQGFRNKAKMVVSGSVEKTLLGMLHRDGTPEDLCDCPLYPASFAPVFAALKPFIARAGLTPYNVARKRGELKYILLTESQSDGGMMLRFVLRSDTKLAQLRKALPWLHEQLPQLKVITVNIQPVHMAIMEGETEIYLTEQQALAERFNDVPLWIRPQSFFQTNPAVASQLYATARDWVRQLPVKHMWDLFCGVGGFGLHCATPDMQLTGIEIAPEAIACAKQSAAELGLTRLQFQALDSTQFATAQGEVPELVLVNPPRRGIGKPLCDYLSTMAPRFIIYSSCNAQTMAKDIRELPGYRIERVQLFDMFPHTAHYEVLTLLVKQ	not soluble
MGSDKIHHHHHHMIRDNIMSQIDLPTDFDFQQAGRQVLEIEREGLAQLDQYINEDFTHACETIFRCGGKVVVMGMGKSGHIGRKMAATFASTGTSAFFVHPGEAAHGDLGMVTPQDVVIALSNSGESNEILALIPVLKRQQVKLICITSRPESSMARAADIHLCVKVPKEACPLGLAPTSSTTAALVMGDALAVALLEARGFTAEDFALSHPGGALGRKLLLRVNDIMHTGDEIPHVGLQATLRDALLEITRKNLGMTAICDDDMNIIGIFTDGDLRRVFDTGVDMRDASIADVMTRGGIRIRPGTLAVDALNLMQSRHITCVLVADGDHLLGVVHMHDLLRAGVV	not soluble
MNLAKRILQGEQLTKETVLKIYEDTNIDTLDLLNEAYILRKHYFGKKVKLNMILNAKSGICPENCGYCGQSRDIKQKQRYALIPEEQIIDGAKVAHDNHIGTYCIVMSGRGPSDKEVDHISNTVRTIKSQHPQLKICACLGLTNDEQAKKLKSAGVDRYNHNINTSENYHDNVVTTHSYKDRTDTIELMKANNISPCSGVICGMGESNQDIVDMAFALKEMDADSIPINFLHPIKGTKFGSMDDLTPMKCLRIVALFRLINPTKEIRIAGGREVNLRSLQPLALKAANSIFVGDYLITGGQPNQLDYDMINDLGFEIDYDTCENKENKNDVSRAN	not soluble
MMKRQTWPEPTIPVSQQFARGNFPVGIICEHPGEVNAYRYSSEEKRAMEHATEEQVQDLRCAAEVHRQVRRYAQSFIKPGISLLSMTDRIEKKLEELIEKDGLNRGQAFPTGCSLNHVAAHYTPNTGDKCVLMYDDVMKVDFGTQINGRIIDCAWTVAFKDEYEPLLTAVKEATYEGVKQAGIDVRLCDVGAAIQEVMESYEVELNGKVYPVKSIRNLSGHTIAPYVIHGGKSVPIVRGGEATRMEEGELFAIETFGSTGRGFVQEDMECSHYMMVPGGEKTQVRSDKAQQLLRHIHKTYNTLAFARKWLDRDGHDRHLLNLNQLVEAGAVNKYPPLCDIRGCYTAQLEHTLILKPTAKEILSKGDDY	not soluble
MSLEQGIAARKAEAESNASTKGESPDYPGQQVIWRLIQEAGESLRDELRTLAFTLHDHPEEAFEEVFATEEITKLLQNHGFEVQSGVYGVKTALETSFETPGYDPAQHPSIAILAEYDALPEIGHACGHNIIAAAGVGAFLAVTNMIKTAEVKGVDHLDFEGRIVLLGTPAEEGHSGKEYMIRNGAFDGIDASIMMHPFGFDLAEHVWVGRRTMTATFHGVSAHASSQPFMGKNALDAASLAYQGFGVLRQQMPPSDRLHAIITEGGNRPSIIPDTATMSLYVRSLLPEALKDISKRVDDVLDGAALMAGVGVEKQWDVHPASLPVRNNHVLARRWAKTQNLRGRTALSEGILPDTLAASTDFGNVSHLVPGIHPMVKISPENVALHTKEFAAYARTEEAIDAAVDAAIGLAQVAVDALADPQMLIDATLEFTNSGDVLKVGDYLAEGHHHHHH	soluble
MGSDKIHHHHHHMALLEVTDLSQSFADRKLYDDANFTLERADHMGIVGQNGAGKSTLIKILTGQILPLSGQIKWQRNVRTGYLDQYADIPAGMTLYAFLKTAFQRLYDLDAQMQQLYADYAEKMDDQLLERAGRIQETLEANNFYDVETEMERVITGLGLDEIGRDHVISEMSGGQRSKIILAKLLLENPDVIILDEPTNYLDTAHISWLEDYLNGFEGAVMVISHDYDFLQQVTNCICDVAFGKIIKYRGDFKAAMRQKEARKEAQLKAFEKQQVVIEKAEKFIRKNKAGSKSTMAKSREKMLSHLDRVDPPSENEHAKFAFPYLDTGSQNALSVTKLSVGYGKPLLEPVTFTMTNGEKLAFKGFNGVGKSTLIKSILGVIPALSGKSDFSPSAKINYFNQDLEWDNPQLTPLQTIQNEYPTMLPKTIRTKLAKCGINAANAMKPMHLLSGGEQTKVKLALLELVPSNFLIMDEPTNHLDDETKEGLKRALQAFQGNLILVSHESSFVNGWVDKELNVEKLSLKERQG	not soluble
